Consider three molecules from article PMC11481384 (2024).

The labels stand for the following.
B1: 6-mer peptide (peptide)
chain: NVESGE
modifications: Sequence shown only in Fig. 4B; limits taken as the NxESGE motif (UniProt Keap1-interaction region 77-82). Synthetic peptide, termini not stated
B2: ED 12-mer peptide (peptide)
chain: ESGEEELASKLD
modifications: Limits inferred from the name: first residue E, last residue D, 12 residues, containing ESGE; by analogy IE 12-mer = 71-82 (PDB 8IN0) and the 20-mer is probably 71-90. Synthetic peptide, termini not stated

This test deals with Keap1 Kelch domain (amino acid residues 309 to 624) (human, UniProt Q14145 309-624). Nature of the test: ITC. A general note: ITC needs no label: the signal is the heat of the interaction.
Keap1 Kelch domain (amino acid residues 309 to 624), sequence (Q14145 309-624): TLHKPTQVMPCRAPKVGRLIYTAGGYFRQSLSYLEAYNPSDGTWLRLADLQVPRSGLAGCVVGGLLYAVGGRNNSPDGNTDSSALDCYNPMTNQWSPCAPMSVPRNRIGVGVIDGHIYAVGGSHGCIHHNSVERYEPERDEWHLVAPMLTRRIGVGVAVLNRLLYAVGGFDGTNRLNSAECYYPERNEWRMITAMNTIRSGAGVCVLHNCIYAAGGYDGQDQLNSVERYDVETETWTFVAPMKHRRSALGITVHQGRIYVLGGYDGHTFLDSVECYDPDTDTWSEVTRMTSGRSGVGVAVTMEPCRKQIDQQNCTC
With INVRKRNVESGE [PGAM5 IE 12‐mer peptide], the Kd (as a rule, the concentration at which binding is half-saturated) is 63.6 µM.
Consider B1, for which binding was put at a Kd of 133 µM.
The molecule B2 yielded a Kd of 14 µM.
